Substrate: NCCCP(=O)(O)OP(=O)(O)OC[C@H]1O[C@@H](n2ccc(N)nc2=O)[C@H](O)[C@@H]1O
Experiment: steady-state kinetics
Assay type: biochemical, Streptomyces rubellomurinus

B1: FrbG (Streptomyces rubellomurinus) (protein)
chain: MTHYATVICGGGPAGVSAVVAAAVQGRLEEFLDRGVLLVEATGRAGSGSIPHYGIRANSLGSAFLECLDGPAGSGLLAGLADSAEARELRGWADEYPPLPVVGAFLTLVGERVVDALRRHPRCDALLGHRVVEVRTGPERATVLLSGPDGELSHTGDRVLLTMGGRERTELAPDALAALVERRPGLRVLSSGEVITDPSWHPDAASPHRALGSIAVLGGAHSAWAVAAHLARLARAGWFAGPVEVTVVERRLPPIFYFSAAEARAEGYRWDEADVCGPSGRVHRFGGLRGPARELARQVMGLAAEKAPDGFGQVVLDGPWTAEALEAAVGDADLVITALGYDARLPRLLGADGRELELARPRGAVDTGRDGLPGLAAGGRAERLVMYGLGAGLVPSEETGGEPGYRGRLDGVWVYQHDIGAVILRALLANDRTEDGR
Km: 15.1 ± 1.5 µM | kcat: 0.0987 ± 0.00633 s⁻¹ | kcat/Km: 6520 M⁻¹ s⁻¹

Source: paper PMC2819980
